Data as given in paper PMC5446181.

What was measured:
[1] = molecular target: TChz, truncated recognition fragment (middle region, MoRF) of the histone chaperone Chz1 (UniProt P40019); test: ITC; 200 uM TBZ_(Y139W) injected into 20 uM TChz, 298 K, NANO-ITC, 1:1 isothermal binding model
[2] = molecular target: TBZ_(Y139W), tryptophan variant (pseudo-WT) of the H2A.Z-H2B linked fragment; test: stopped-flow fluorescence; TChz 4, 6, 8, 12, 20 uM mixed with 2 uM TBZ_(Y139W), 0.01 M PBS, 25 C, excitation 290 nm, 320 nm cutoff filter; global numerical fit to a two-step induced-fit model

TBZ_(Y139W), tryptophan variant (pseudo-WT) of the H2A.Z-H2B linked fragment (domain or fragment)
Kd [1]: 330 nM | dH [1]: -8.14 kcal/mol | stoichiometry N [1]: 0.97

B1: TChz, truncated recognition fragment (middle region, MoRF) of the histone chaperone Chz1 (domain or fragment)
chain: DMDDAKLDALMGNEGEEEEDDLAEIDTSNIITSGRRTRGKVIDYKKTAEELDKKEPSTGSKD
k1+ (first step, association to the intermediate, induced-fit model) [2]: 6.78e+06 M⁻¹ s⁻¹ | k1− (first step, dissociation of the intermediate, induced-fit model) [2]: 53.4 s⁻¹ | k2+ as the column head prints it a second time (taken as k2−, second step reverse, induced-fit model) [2]: 9.88 s⁻¹
